Test results from the supplement of paper PMC9732359.
± gives the uncertainty stated by the source.

Assay: protein stability index of a GFP-peptide fusion (yeast GPS) (PSI 1-4); higher = more stable; sorted into four equal gates, so the index is relative within each strain
Summary of the method: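 Peptides tiling yeast proteins in 17-residue segments were fused downstream of GFP, with Cherry expressed from the same plasmid. As a pooled library in yeast, mid-log cultures grown in leucine-free medium were sorted into four equal gates by GFP/Cherry fluorescence ratio. Gate plasmids were PCR-amplified and Illumina-sequenced, and barcodes linked reads to strains. Each peptide received a protein stability index equal to the sum of each gate's read frequency times its gate number.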

Sequence	protein stability index (doa10∆)	protein stability index (pdr5∆)	protein stability index (san1∆)	protein stability index (ubr1∆)
FYDYIKERSIVVGRTTR [REC8]	1.9 ± 0.077	1.72 ± 0.064	1.22 ± 0.13	1.17 ± 0.045
LISGKAGVLNGTLEYGT [RET1]	2.83 ± 0.056	3.03 ± 0.062	3.02 ± 0.063	2.99 ± 0.059
RVWAEYATKRQEAIQQN [PRP8]	2.37 ± 0.15	2.56 ± 0.1	2.61 ± 0.1	2.2 ± 0.096
YQELAYRATSLDPSLRA [YML031W/NDC1]	2.8 ± 0.049	2.89 ± 0.041	2.83 ± 0.036	2.61 ± 0.031
VIITDGTLLREDDNTPA [YDL088C/ASM4]	2.94 ± 0.077	2.9 ± 0.081	2.94 ± 0.056	3.01 ± 0.042
KDEETTEKARLIDFEYV [RRI2]	3.21 ± 0.098	3.5 ± 0.14	3.56 ± 0.073	3.13 ± 0.11
NSIESKNLSLQTGTKPV [COR1]	2.72 ± 0.06	2.84 ± 0.053	2.95 ± 0.045	2.85 ± 0.042
MAFRKSNVYLSLVNSYI [COB]	2 ± 0.049	2.08 ± 0.078	1.96 ± 0.079	2.36 ± 0.064
MDIMEDFLRYINIKYLR [SNF2]	1.54 ± 0.039	1.37 ± 0.044	1.37 ± 0.12	1.3 ± 0.036
TNNEQLQQELATTQDQV [NUT2]	3.06 ± 0.048	3.25 ± 0.062	3.11 ± 0.039	3.19 ± 0.038
AINLMGVKNNLLTPKSG [RPO31]	3.11 ± 0.13	2.76 ± 0.12	2.76 ± 0.13	2.63 ± 0.11
ENLPGLSISVAAEPMDS [SNU114]	2.7 ± 0.062	2.91 ± 0.079	2.83 ± 0.074	3.17 ± 0.095
YDALLSINVHSNNITSG [RET1]	2.52 ± 0.061	2.66 ± 0.057	2.59 ± 0.059	2.76 ± 0.04
SKQTPQPKAPRAPKVIH [ISW2]	2.91 ± 0.05	3.14 ± 0.054	2.93 ± 0.041	3.14 ± 0.047
VSSRVRGYTCQFVDMVL [FAS1]	1.76 ± 0.09	1.94 ± 0.07	1.44 ± 0.094	2.02 ± 0.081
FGHIMEDFQVLRLGRGI [YDL088C/ASM4]	3.04 ± 0.066	2.96 ± 0.055	2.49 ± 0.068	2.96 ± 0.044
LALENGEITKTENEKFI [NUT1]	3.28 ± 0.15	3.45 ± 0.11	3.44 ± 0.066	3.3 ± 0.14
VLKTLEYKLATYGVPGS [NUT1]	2.75 ± 0.068	2.54 ± 0.066	3.27 ± 0.045	2.18 ± 0.08
ISIPKTCDEIQNFENDF [REC8]	2.8 ± 0.077	2.92 ± 0.068	2.61 ± 0.056	2.85 ± 0.046
GGADQVTRTQQWSMVAQ [SWI1]	3.15 ± 0.077	3.31 ± 0.075	3.03 ± 0.063	3.07 ± 0.052
IPTNPVDNENNKPAIKE [SWI3]	2.95 ± 0.074	3.1 ± 0.083	2.89 ± 0.11	3.21 ± 0.068

Sequence	protein stability index (doa10∆)	protein stability index (pdr5∆)	protein stability index (san1∆)	protein stability index (ubr1∆)
ENSAVAAKEGLALSSNI [COR1]	1.84 ± 0.065	2.66 ± 0.064	2.49 ± 0.084	2.17 ± 0.053
TFDGKPTATPSPFRPLE [YMR153W/NUP53]	3.02 ± 0.086	2.15 ± 0.087	2.38 ± 0.12	2.58 ± 0.071
PVGRELDPISLILIPGE [RPN13]	2.65 ± 0.098	2.56 ± 0.05	3.13 ± 0.062	3.23 ± 0.098
QLEDESSRLEFVKGISR [YML103C/NUP188]	3.45 ± 0.095	3.2 ± 0.11	3.33 ± 0.067	3.21 ± 0.099
TDANGKTIVTGGNGPED [RPO26]	3.62 ± 0.21	3.28 ± 0.099	3.48 ± 0.12	3.37 ± 0.057
IHQYLFQEGVVVAKKDF [RPS10A]	2.29 ± 0.068	2.08 ± 0.071	1.93 ± 0.089	2.04 ± 0.085
CFDSTTGRDAGFGILED [RRP40]	3.33 ± 0.13	3.24 ± 0.13	3.47 ± 0.12	3.41 ± 0.074
GSLTFLDNKGSGEDAEE [YIL149C/MLP2]	3.48 ± 0.27	3.22 ± 0.12	3.56 ± 0.12	3.46 ± 0.071
PEFAGYSKAAEPHAVSL [ASC1]	2.51 ± 0.073	2.44 ± 0.063	2.17 ± 0.068	2.21 ± 0.047
YMVSRAIRDGVIEAKIN [RPN3]		3.28 ± 0.17	2.95 ± 0.12	2.8 ± 0.15
KVLINDQLSTISMILRN [SWI1]	2.28 ± 0.047	2.79 ± 0.062	2.17 ± 0.07	2.68 ± 0.042
IMKNKDFILSLLHHVSE [YJL039C/NUP192]	2.41 ± 0.12	2.35 ± 0.099	1.92 ± 0.11	2.52 ± 0.065
KNDLFVIWSEDNDEKLI [RPO21]	2.83 ± 0.077	2.55 ± 0.096	3.1 ± 0.045	2.44 ± 0.089
APLNLEIPAYEFDGDKV [RIP1]	2.6 ± 0.099	2.54 ± 0.096	2.55 ± 0.077	2.72 ± 0.077
AGKSLVSKSEPKFFLGE [QCR2]	3.41 ± 0.09	3.31 ± 0.067	3.08 ± 0.054	3.32 ± 0.047
ELSDNEENFEATRTLVA [YCG1]	3.13 ± 0.12	3.09 ± 0.096	2.89 ± 0.14	3.04 ± 0.081
IDSTDHIRKASSKKSKR [LRP1]	2.15 ± 0.046	1.99 ± 0.039	1.83 ± 0.058	2.14 ± 0.038
KRPRSRTLTAVHDKVLE [RPS7B]	3.36 ± 0.17	2.99 ± 0.13	3.02 ± 0.07	2.08 ± 0.24
FIAVGQILPESQWNDSS [SIR3]	2.27 ± 0.16	3.08 ± 0.14	2.61 ± 0.24	2.71 ± 0.097
QEAIQQNRRLAFEELEG [PRP8]	2.24 ± 0.12	2.62 ± 0.28	2.74 ± 0.24	2.75 ± 0.12
EGLDELPKIIQLQGPQW [SOH1]	3.16 ± 0.068	3.35 ± 0.057	3.18 ± 0.043	3.15 ± 0.056

Sequence	protein stability index (doa10∆)	protein stability index (pdr5∆)	protein stability index (san1∆)	protein stability index (ubr1∆)
RKNFKMGPLYQNFAEFM [IRR1]	1.33 ± 0.037	1.54 ± 0.06	1.72 ± 0.078	1.67 ± 0.038
NFKDMSHVNKYGLIRGL [PRP8]	2 ± 0.069	1.47 ± 0.067	2.19 ± 0.13	1.16 ± 0.032
KSSFVKESAVISKQKSK [SMC1]	2.18 ± 0.1	2.34 ± 0.046	2.26 ± 0.064	2.37 ± 0.037
LEDLFSYRNGMASYMLN [YJR042W/NUP85]	1.6 ± 0.071	1.25 ± 0.15	1.89 ± 0.13	2.42 ± 0.11
TRYMFQRDFRKHGAVHL [RPL21A]	2.42 ± 0.062	2.27 ± 0.069	2.33 ± 0.084	2.44 ± 0.092
LETILEEFRNLAALNVW [SSN2]	2.9 ± 0.11	2.98 ± 0.1	2.52 ± 0.11	3.32 ± 0.057
VDNTTEQSNSRKRTRSE [YCG1]	3.27 ± 0.18		2.83 ± 0.1	
HGHLGFLPRKRAASIRA [RPL3]	2.1 ± 0.086	2.44 ± 0.067	2.79 ± 0.055	2.2 ± 0.077
VVWYQRLTMGNVFTPEI [RRI2]	2.03 ± 0.074	2.3 ± 0.058	2.27 ± 0.12	2.45 ± 0.073
VTHMDQIFVRGSQIKFI [SMD3]	2.55 ± 0.13	2.67 ± 0.14	2.17 ± 0.13	2.04 ± 0.067
VEKGTPLGKILLKGDNI [SME1]	3.58 ± 0.088	3.43 ± 0.093	3.38 ± 0.14	3.59 ± 0.078
PIVIIFRALGIIPDGEI [RPB2]	1.92 ± 0.048	1.79 ± 0.056	2.05 ± 0.063	2.41 ± 0.039
GDANNRWDKEEYQSLMS [SMC1]	3.36 ± 0.21	3.03 ± 0.29	3.05 ± 0.28	3.21 ± 0.073
PSLLLQKDQDGRIPLHW [NAS6]	3.28 ± 0.28	3.38 ± 0.21		
ITLRGVENIERVVMMKY [RPO21]	2.22 ± 0.12	2.28 ± 0.096	1.23 ± 0.16	2.19 ± 0.076
KIINKPNELSQILTVDP [RPC82]	3.13 ± 0.28	2.56 ± 0.13	3.01 ± 0.075	2.78 ± 0.09
NVTLVNGKRRMNPGPSV [RPS30A]	2.37 ± 0.059	2.79 ± 0.035	2.67 ± 0.055	2.65 ± 0.039
KELMLQSKKLIEEKLSS [YIL149C/MLP2]	2.95 ± 0.12	2.96 ± 0.11	2.72 ± 0.11	3.05 ± 0.07
KRVDFSGRTVISPDPNL [RPO31]	2.44 ± 0.1	2.65 ± 0.11	3.2 ± 0.14	2.83 ± 0.086
YQRPMQVQGQQQAQSFV [SSN3]	2.42 ± 0.044	2.71 ± 0.045	2.5 ± 0.05	2.63 ± 0.035
NKSFIVDQGQIYRDRST [ITC1]	3.1 ± 0.11	3.35 ± 0.12	3.32 ± 0.064	3.32 ± 0.052

Sequence	protein stability index (doa10∆)	protein stability index (pdr5∆)	protein stability index (san1∆)	protein stability index (ubr1∆)
KDPDVPLVLLQQIPLLC [POP3]	2.33 ± 0.055	2.57 ± 0.064	2.4 ± 0.06	2.47 ± 0.052
SIDSTSRIELELKNIGL [ECM29]	2.59 ± 0.052	2.75 ± 0.045	2.74 ± 0.042	2.44 ± 0.028
EILVEESGLRPVSLLNS [PCI8]	2.63 ± 0.1	3.21 ± 0.1	3.16 ± 0.063	2.54 ± 0.087
YVISLSYTDAQDKSKKI [YMR129W/POM152]	2.67 ± 0.12	2.95 ± 0.082	2.9 ± 0.072	2.68 ± 0.06
PVQIVKRITQITIEPGV [RPS20]	1.74 ± 0.15	1.79 ± 0.25	1.35 ± 0.21	1.65 ± 0.12
ESYKPSVQLPDMAKLKK [SWI3]	2.94 ± 0.081	2.9 ± 0.081	2.81 ± 0.06	2.79 ± 0.068
EQKLIDQHVINILWAIY [YCS4]	1.87 ± 0.042	2.28 ± 0.04	1.93 ± 0.053	1.68 ± 0.035
TFRLPKTLKLARAPKYA [RPL25]	1.69 ± 0.076	1.61 ± 0.072	1.23 ± 0.19	1.19 ± 0.047
LESFQAVYNKLTGKQIV [RPS7A]	1.68 ± 0.055	1.32 ± 0.044	1.28 ± 0.098	1.53 ± 0.052
LAAPQLVQMYIGEGAKL [RPT5]			2.48 ± 0.26	
RGVDAGKGNTFEKVGSH [RPN14]	2.71 ± 0.24	2.98 ± 0.17	3.67 ± 0.11	3.33 ± 0.12
STMTEPVKQSFIRKYIN [GAL11]	2.56 ± 0.082	2.2 ± 0.065	1.96 ± 0.092	2.47 ± 0.053
VEKNEIGKMYDEYLGSH [NNF1]	3.38 ± 0.17	3.3 ± 0.15	3.28 ± 0.12	3.18 ± 0.086
SLFHIVVDTEETATLIM [SMC3]	2.35 ± 0.15	2.17 ± 0.15	1.68 ± 0.17	2.23 ± 0.098
ATKDNELNVKHVKQCQE [SMC2]	2.96 ± 0.1	3.35 ± 0.2	2.97 ± 0.066	3.32 ± 0.05
GPSATDPETTATQKESL [RGR1]	2.43 ± 0.062	2.87 ± 0.071	1.66 ± 0.11	2.21 ± 0.048
TRELAEEGYSGVEVRVT [RPS3]	2.4 ± 0.059	3 ± 0.073	2.67 ± 0.053	2.86 ± 0.04
TEDVRLAPELNQAIWKR [RPL31B]	2.67 ± 0.069	2.99 ± 0.083	3.03 ± 0.062	3.08 ± 0.05
